Source: PMC7998035

Assays:
Assay in all cases: ELISA; ECM protein coated on the plate (100 nM in PBS, 1 h, 37 °C), blocked with 1% BSA in PBS-T; IL-1Ra or PDGF-BB variants at 0 to 100 nM in PBS-T with 0.1% BSA, 1 h, room temperature; bound protein detected with biotinylated antibodies (DuoSet); specific binding fitted with a one site-specific binding model; means of 3 independent experiments
[1] = molecular target: human plasma fibronectin (human)
[2] = molecular target: human vitronectin (human) (UniProt P04004)
Sequence of human vitronectin (human) (P04004 20-478): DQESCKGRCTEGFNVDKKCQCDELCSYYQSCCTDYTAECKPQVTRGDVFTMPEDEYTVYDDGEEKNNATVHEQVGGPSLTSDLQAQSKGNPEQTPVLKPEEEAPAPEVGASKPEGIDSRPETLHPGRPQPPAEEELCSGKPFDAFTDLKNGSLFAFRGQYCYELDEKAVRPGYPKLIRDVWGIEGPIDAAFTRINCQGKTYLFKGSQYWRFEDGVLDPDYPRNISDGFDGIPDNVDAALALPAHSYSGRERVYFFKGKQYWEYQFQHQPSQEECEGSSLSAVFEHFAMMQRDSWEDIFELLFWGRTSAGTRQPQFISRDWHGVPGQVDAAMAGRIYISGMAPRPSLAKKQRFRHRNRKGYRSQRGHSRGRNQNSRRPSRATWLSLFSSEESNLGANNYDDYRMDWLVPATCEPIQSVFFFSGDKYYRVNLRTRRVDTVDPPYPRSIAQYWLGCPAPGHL

human tenascin C (human) = human tenascin C (human) (UniProt P24821)
Sequence of human tenascin C (human) (P24821 23-2201): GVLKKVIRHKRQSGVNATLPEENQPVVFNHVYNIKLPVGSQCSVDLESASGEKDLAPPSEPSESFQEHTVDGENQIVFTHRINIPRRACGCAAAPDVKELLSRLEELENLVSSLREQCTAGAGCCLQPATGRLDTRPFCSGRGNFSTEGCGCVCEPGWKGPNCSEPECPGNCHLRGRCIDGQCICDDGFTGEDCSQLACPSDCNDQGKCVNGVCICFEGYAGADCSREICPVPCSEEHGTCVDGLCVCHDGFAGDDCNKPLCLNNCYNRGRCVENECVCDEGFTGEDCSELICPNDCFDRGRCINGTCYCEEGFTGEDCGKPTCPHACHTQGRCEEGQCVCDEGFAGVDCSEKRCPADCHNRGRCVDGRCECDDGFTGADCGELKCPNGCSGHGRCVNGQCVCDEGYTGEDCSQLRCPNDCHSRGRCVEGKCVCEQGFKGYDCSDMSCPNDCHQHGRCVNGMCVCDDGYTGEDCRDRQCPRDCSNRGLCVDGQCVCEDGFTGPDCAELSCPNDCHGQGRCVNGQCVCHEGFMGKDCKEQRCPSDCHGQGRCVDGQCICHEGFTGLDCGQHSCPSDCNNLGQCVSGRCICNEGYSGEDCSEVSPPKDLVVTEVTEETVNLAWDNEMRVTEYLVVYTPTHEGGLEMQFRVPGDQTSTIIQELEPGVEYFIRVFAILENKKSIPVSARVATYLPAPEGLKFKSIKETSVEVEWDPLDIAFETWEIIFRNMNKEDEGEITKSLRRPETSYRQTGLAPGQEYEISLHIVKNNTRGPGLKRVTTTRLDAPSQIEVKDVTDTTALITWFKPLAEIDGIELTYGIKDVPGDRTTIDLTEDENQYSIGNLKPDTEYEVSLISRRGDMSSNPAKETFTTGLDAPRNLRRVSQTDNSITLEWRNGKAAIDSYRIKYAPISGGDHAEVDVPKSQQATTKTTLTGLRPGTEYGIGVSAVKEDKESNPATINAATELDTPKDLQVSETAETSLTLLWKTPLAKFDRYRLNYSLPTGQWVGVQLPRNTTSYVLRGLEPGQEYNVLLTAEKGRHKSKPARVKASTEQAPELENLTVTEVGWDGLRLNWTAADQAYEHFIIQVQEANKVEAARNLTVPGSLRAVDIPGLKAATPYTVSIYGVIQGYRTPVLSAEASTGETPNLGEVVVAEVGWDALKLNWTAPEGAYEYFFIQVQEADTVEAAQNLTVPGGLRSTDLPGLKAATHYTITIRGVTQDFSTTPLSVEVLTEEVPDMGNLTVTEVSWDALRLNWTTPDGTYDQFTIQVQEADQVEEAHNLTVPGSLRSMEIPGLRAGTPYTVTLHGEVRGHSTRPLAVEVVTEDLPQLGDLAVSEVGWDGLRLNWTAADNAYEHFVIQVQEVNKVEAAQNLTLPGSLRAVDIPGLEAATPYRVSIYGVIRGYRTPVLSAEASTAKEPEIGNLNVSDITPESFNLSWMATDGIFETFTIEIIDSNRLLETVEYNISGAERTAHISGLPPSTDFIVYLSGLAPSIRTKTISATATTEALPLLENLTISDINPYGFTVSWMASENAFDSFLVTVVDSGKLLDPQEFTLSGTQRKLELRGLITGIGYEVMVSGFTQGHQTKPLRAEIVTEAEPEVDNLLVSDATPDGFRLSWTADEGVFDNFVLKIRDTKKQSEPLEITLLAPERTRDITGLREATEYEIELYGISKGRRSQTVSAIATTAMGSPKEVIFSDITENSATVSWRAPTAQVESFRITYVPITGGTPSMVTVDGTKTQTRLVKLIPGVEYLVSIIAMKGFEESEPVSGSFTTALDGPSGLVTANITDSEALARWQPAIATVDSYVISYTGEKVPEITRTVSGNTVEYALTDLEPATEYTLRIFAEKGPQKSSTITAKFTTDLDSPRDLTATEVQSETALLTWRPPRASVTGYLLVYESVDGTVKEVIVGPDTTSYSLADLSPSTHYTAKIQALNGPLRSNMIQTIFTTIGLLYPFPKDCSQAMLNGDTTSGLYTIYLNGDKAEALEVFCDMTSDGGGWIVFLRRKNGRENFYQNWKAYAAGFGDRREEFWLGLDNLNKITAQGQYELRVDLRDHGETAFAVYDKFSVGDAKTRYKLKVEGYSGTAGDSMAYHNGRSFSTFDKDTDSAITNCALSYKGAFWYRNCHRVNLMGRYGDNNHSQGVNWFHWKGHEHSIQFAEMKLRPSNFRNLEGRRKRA

Sequence of human plasma fibronectin (human) (P02751 other isoform, or with tags, fused parts or gaps): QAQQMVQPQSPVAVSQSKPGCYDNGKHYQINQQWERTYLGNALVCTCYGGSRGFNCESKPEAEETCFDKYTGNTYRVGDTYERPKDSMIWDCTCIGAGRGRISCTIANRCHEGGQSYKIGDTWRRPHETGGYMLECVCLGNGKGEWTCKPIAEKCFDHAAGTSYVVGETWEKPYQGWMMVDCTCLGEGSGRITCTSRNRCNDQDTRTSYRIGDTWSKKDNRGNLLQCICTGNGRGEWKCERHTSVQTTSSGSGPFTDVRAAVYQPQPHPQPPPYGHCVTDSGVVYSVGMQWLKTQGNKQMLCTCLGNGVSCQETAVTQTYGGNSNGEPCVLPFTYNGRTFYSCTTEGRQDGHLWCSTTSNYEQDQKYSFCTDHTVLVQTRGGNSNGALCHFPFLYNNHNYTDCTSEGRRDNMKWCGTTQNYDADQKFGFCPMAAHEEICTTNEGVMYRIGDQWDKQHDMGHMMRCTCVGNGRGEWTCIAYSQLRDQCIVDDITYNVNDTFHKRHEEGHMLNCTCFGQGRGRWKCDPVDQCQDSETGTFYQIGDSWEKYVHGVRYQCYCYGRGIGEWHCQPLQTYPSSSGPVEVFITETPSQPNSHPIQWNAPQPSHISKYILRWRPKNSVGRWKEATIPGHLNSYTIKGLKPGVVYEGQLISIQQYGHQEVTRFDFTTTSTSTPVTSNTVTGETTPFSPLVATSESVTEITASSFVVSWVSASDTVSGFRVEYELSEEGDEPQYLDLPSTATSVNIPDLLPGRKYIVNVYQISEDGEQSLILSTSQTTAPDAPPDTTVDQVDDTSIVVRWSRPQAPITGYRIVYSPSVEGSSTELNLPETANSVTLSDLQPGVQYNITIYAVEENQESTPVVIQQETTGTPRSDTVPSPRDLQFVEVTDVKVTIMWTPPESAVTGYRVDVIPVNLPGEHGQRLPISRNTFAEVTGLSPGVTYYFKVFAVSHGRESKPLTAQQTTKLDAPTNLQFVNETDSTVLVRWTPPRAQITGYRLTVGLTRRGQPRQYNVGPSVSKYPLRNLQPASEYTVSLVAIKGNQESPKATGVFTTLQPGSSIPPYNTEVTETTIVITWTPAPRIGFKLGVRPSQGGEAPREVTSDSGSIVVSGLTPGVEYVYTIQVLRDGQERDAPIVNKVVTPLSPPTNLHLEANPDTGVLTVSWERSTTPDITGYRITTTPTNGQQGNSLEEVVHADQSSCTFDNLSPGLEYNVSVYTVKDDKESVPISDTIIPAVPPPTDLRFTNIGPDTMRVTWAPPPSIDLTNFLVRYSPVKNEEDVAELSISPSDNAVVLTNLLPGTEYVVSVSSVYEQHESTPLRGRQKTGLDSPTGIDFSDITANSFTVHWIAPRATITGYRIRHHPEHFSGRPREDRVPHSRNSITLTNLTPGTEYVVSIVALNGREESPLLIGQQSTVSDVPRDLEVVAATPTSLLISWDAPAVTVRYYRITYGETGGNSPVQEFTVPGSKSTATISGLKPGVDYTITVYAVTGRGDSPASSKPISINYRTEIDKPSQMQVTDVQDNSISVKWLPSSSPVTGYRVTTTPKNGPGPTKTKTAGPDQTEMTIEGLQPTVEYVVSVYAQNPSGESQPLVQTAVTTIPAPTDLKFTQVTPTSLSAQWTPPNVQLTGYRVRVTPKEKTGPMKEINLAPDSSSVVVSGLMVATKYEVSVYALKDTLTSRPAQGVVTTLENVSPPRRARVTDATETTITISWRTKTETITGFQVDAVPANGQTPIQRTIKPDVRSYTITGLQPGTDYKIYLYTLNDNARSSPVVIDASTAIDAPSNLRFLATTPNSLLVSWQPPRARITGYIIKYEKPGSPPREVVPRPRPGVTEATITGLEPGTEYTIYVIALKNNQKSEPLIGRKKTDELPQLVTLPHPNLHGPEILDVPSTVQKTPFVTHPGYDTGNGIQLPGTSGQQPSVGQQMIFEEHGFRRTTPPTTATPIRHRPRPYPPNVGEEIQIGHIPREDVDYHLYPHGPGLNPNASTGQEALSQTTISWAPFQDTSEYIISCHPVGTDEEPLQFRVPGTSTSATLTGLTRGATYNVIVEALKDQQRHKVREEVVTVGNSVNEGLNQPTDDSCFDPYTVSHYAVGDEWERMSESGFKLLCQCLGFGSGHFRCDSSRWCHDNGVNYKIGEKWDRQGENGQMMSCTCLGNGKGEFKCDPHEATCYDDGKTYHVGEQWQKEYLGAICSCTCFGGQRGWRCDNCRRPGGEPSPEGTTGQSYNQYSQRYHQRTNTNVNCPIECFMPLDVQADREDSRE

Kd [1]	Kd [2]	Kd (human tenascin C (human))	Substance
0.0219 µM			IL-1Ra/PlGF123-141 (other; other documents disagree on this pair)
0.0177 µM			PDGF-BB/PlGF123-141 (other; other documents disagree on this pair)
	0.0007 µM	0.0203 µM	IL-1Ra/PlGF123-141
	0.0014 µM	0.025 µM	PDGF-BB/PlGF123-141
